Molecular target: the molecule itself
Assay: […]

B1: Hendra virus PNT3 (aa 200–310 of the P/V/W proteins), wild type, full-length PNT3 (domain or fragment)
chain: TPTEEPPVIPEYYYGSGRRGDLSKSPPRGNVNLDSIKIYTSDDEDENQLEYEDEFAKSSSEVVIDTTPEDNDSINQEEVVGDPSDQGLEHPFPLGKFPEKEETPDVRRKDS
B1: binds.

From publication PMC11845978 (Protein Science : A Publication of the Protein Society, 2025)
